Laboratory results as given in the supplement of paper PMC10567573.

B1: PTPRD (parent)
chain: LTKLREMGREKCHQYWPAERSARY

Variants of: B1
Test: protein stability index of a GFP-peptide fusion (GPS, HEK-293T) (PSI 1-6); higher = more stable
Conditions: c terminus: a fixed tail appended
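Note: lentivirally expressed fusions sorted by FACS into six bins by GFP to DsRed ratio, PSI derived from sequencing read proportions per bin multiplied by bin number.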

Row | Variant | protein stability index
1 | LTKLREMGREKCHSYWPAERSARY | 2.68
2 | LTKLREMGREKCHPYWPAERSARY | 1.69
3 | LTKLREMGREKCHTYWPAERSARY | 2.62
4 | LTKLREMGREKCHDYWPAERSARY | 2.47
5 | LTKLREMGREKCHFYWPAERSARY | 1.84
6 | LTKLREMGREKCHAYWPAERSARY | 2.46
7 | LTKLREMGREKCHHYWPAERSARY | 2.95
8 | LTKLREMGREKCHLYWPAERSARY | 2.5
9 | LTKLREMGREKCHCYWPAERSARY | 1.82
10 | LTKLREMGREKCHYYWPAERSARY | 1.85
11 | LTKLREMGREKCHNYWPAERSARY | 2.64
12 | LTKLREMGREKCHRYWPAERSARY | 2.04
13 | LTKLREMGREKCHWYWPAERSARY | 1.41
14 | LTKLREMGREKCHVYWPAERSARY | 2.61
15 | LTKLREMGREKCHGYWPAERSARY | 2.46
16 | LTKLREMGREKCHKYWPAERSARY | 2.48
17 | LTKLREMGREKCHEYWPAERSARY | 3.05
18 | LTKLREMGREKCHMYWPAERSARY | 2.04
19 | LTKLREMGREKCHQYWYAERSARY | 2.17
20 | LTKLREMGREKCHQYWDAERSARY | 2.79
21 | LTKLREMGREKCHQYWIAERSARY | 2.25
22 | LTKLREMGREKCHQYWMAERSARY | 1.97
23 | LTKLREMGREKCHQYWRAERSARY | 2.37
24 | LTKLREMGREKCHQYWLAERSARY | 2.01

Row | Variant | protein stability index
25 | LTKLREMGREKCHQYWGAERSARY | 2.29
26 | LTKLREMGREKCHQYWEAERSARY | 2.5
27 | LTKLREMGREKCHQYWAAERSARY | 2.12
28 | LTKLREMGREKCHQYWSAERSARY | 2.09
29 | LTKLREMGREKCHQYWWAERSARY | 2.04
30 | LTKLREMGREKCHQYWTAERSARY | 2.32
31 | LTKLREMGREKCHQYWQAERSARY | 2.16
32 | LTKLREMGREKCHQYWVAERSARY | 1.74
33 | LTKLREMGREKCHQYWNAERSARY | 1.84
34 | LTKLREMGREKCHQYWKAERSARY | 2.58
35 | LTKLREMGREKCHQYWCAERSARY | 1.79
36 | LTKLREMGREKCHQYWHAERSARY | 1.75
37 | LTKLREMGREKCHQYWFAERSARY | 1.99
38 | LTKLREMGREKCHQYWPAETSARY | 2.66
39 | LTKLREMGREKCHQYWPAEHSARY | 2.2
40 | LTKLREMGREKCHQYWPAEYSARY | 2.33
41 | LTKLREMGREKCHQYWPAEKSARY | 2.28
42 | LTKLREMGREKCHQYWPAEESARY | 2.69
43 | LTKLREMGREKCHQYWPAELSARY | 2.34
44 | LTKLREMGREKCHQYWPAEQSARY | 2.38
45 | LTKLREMGREKCHQYWPAECSARY | 2.42
46 | LTKLREMGREKCHQYWPAESSARY | 2.3
47 | LTKLREMGREKCHQYWPAEPSARY | 2.77
48 | LTKLREMGREKCHQYWPAEFSARY | 1.93

Row | Variant | protein stability index
49 | LTKLREMGREKCHQYWPAEISARY | 1.86
50 | LTKLREMGREKCHQYWPAEDSARY | 2.92
51 | LTKLREMGREKCHQYWPAEGSARY | 2.88
52 | LTKLREMGREKCHQYWPAENSARY | 2.62
53 | LTKLREMGREKCHQYWPAEVSARY | 2.03
54 | LTKLREMGREKCHQYWPAEWSARY | 1.51
55 | LTKLREMGREKCHQYWPAEASARY | 2.05
56 | LTKLREMGREKCHQYWPAEMSARY | 2.25
57 | LTKLREMGREKCHQYWPAPRSARY | 2.29
58 | LTKLREMGREKCHQYWPANRSARY | 2.46
59 | LTKLREMGREKCHQYWPAARSARY | 2.31
60 | LTKLREMGREKCHQYWPAYRSARY | 1.86
61 | LTKLREMGREKCHQYWPASRSARY | 2.29
62 | LTKLREMGREKCHQYWPARRSARY | 2.56
63 | LTKLREMGREKCHQYWPAHRSARY | 2.06
64 | LTKLREMGREKCHQYWPAQRSARY | 2.2
65 | LTKLREMGREKCHQYWPACRSARY | 2.21
66 | LTKLREMGREKCHQYWPADRSARY | 2.81
67 | LTKLREMGREKCHQYWPAGRSARY | 2.18
68 | LTKLREMGREKCHQYWPAKRSARY | 2.75
69 | LTKLREMGREKCHQYWPATRSARY | 2.21
70 | LTKLREMGREKCHQYWPALRSARY | 1.7
71 | LTKLREMGREKCHQYWPAWRSARY | 2.15
72 | LTKLREMGREKCHQYWPAIRSARY | 1.91

Row | Variant | protein stability index
73 | LTKLREMGREKCHQYWPAVRSARY | 1.67
74 | LTKLREMGREKCHQYWPAMRSARY | 2.19
75 | LTKLREMGREKCHQYWPAFRSARY | 2.29
76 | LTKLREMGREKCHQYNPAERSARY | 3.5
77 | LTKLREMGREKCHQYCPAERSARY | 2.8
78 | LTKLREMGREKCHQYQPAERSARY | 3.26
79 | LTKLREMGREKCHQYVPAERSARY | 2.76
80 | LTKLREMGREKCHQYEPAERSARY | 3.47
81 | LTKLREMGREKCHQYHPAERSARY | 2.91
82 | LTKLREMGREKCHQYTPAERSARY | 2.6
83 | LTKLREMGREKCHQYAPAERSARY | 3.15
84 | LTKLREMGREKCHQYPPAERSARY | 3.27
85 | LTKLREMGREKCHQYMPAERSARY | 2.85
86 | LTKLREMGREKCHQYKPAERSARY | 3.03
87 | LTKLREMGREKCHQYIPAERSARY | 2.7
88 | LTKLREMGREKCHQYSPAERSARY | 2.84
89 | LTKLREMGREKCHQYGPAERSARY | 3.25
90 | LTKLREMGREKCHQYRPAERSARY | 3.29
91 | LTKLREMGREKCHQYYPAERSARY | 2.58
92 | LTKLREMGREKCHQYFPAERSARY | 2.91
93 | LTKLREMGREKCHQYLPAERSARY | 2.96
94 | LTKLREMGREKCHQYDPAERSARY | 3.8
